According to article PMC11338361:

Target: HA-DGAT2 (hemagglutinin-tagged tung tree DGAT2) (Vernicia fordii (tung tree)) (UniProt Q0QJH9)
Experiment: SDS-PAGE and immunoblotting of microsomal membranes

stoichiometry N: 2
Substance: HA-DGAT2 (hemagglutinin-tagged tung tree DGAT2) (from UniProt Q0QJH9 2-322) (enzyme)
